Assay [1] deals with GLP-1R on CHO cells (CHO/GLP-1R). In words: cell-based or functional assay.
In assay [2] the target is T1, Chinese hamster ovary (CHO) cell-derived soluble recombinant human G-CSF receptor (R&D Systems, 381-050/CF) (human, UniProt Q99062 25-627).
T1 construct: extracellular domain; Bought and amine-coupled to a CM5 chip; also called soluble human G-CSF receptor
T1 sequence (looked up): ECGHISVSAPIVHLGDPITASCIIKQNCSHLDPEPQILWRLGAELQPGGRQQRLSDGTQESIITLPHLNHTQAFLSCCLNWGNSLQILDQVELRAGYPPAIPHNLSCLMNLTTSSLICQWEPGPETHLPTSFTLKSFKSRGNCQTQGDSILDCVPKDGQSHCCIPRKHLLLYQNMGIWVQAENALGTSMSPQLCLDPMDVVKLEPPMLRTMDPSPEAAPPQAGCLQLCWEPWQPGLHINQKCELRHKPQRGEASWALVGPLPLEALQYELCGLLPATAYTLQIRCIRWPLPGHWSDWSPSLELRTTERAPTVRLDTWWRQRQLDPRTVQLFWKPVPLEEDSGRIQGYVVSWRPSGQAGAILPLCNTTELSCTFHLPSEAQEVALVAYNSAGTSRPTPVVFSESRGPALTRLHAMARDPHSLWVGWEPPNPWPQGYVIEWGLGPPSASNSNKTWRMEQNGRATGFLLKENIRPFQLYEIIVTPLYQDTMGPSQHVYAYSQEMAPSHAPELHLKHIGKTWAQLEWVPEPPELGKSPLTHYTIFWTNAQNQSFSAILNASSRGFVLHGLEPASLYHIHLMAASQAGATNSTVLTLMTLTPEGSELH
Briefly: SPR (BIAcore 3000), receptor amine-coupled to CM5 chip, analyte 6.25-100 nmol/L, 25 C, 1:1 Langmuir fit.
Description: Surface plasmon resonance technology and the BIAcore 3000 biosensor (GE healthcare) were employed to measure in vitro binding affinity to the G-CSF receptor. Amine-coupling chemistry was used to immobilize the G-CSF receptor on CM5 biosensor chip. […] The CM5 sensor chip surface was activated by injecting a 1:1 mixture of 0.1 mol/L N-hydroxysuccinimide (GE healthcare) and 0.1 mol/L 3-(N,N-dimethylamino)propyl-N-ethylcarbodiamide (GE Healthcare). […] The chip surface was then blocked with ethanolamine/HCl (GE Healthcare), pH 8.5, and washed with a regeneration solution (50 mmol/L NaCl; 5 mmol/L NaOH). […] Binding affinity was calculated using the 1:1 Langmuir fitting model for each test material.

The target of assay [3] is T2, Fc fragment of eflapegrastim (human, UniProt P01861 107-325 = IgG part, aglycosylated (manufactured from recombinant E. coli cells)).
T2 construct: Unconjugated Fc carrier tested alongside eflapegrastim; also called aglycosylated human IgG4 Fc fragment; immunoglobulin Fc region (IgG4)
T2 sequence (P01861 other isoform, or with tags, fused parts or gaps limits assumed): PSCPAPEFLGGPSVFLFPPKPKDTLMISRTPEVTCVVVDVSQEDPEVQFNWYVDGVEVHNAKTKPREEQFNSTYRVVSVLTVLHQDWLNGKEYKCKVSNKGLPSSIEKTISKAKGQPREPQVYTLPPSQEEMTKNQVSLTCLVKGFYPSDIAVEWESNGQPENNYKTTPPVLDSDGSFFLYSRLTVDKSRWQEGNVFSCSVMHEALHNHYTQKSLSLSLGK
Briefly: ELISA with GST-FcγRIIB, anti-GST detection. The procedure: For C1q, FcγRIIB, FcγRIIIA, and FcRn binding assays, serial dilutions of the test materials were added to 96-well microplates coated with C1q, or GST fusion proteins of FcγRIIB or FcγRIIIA, or FcRn αβ2. After incubation and washing, HRP-conjugated anti-C1q antibody was added for C1q binding assay, and rabbit-anti-GST antibody and HRP-conjugated anti-rabbit IgG antibody were sequentially added for FcγRIIB, FcγRIIIA, and FcRn binding assays. The absorbance was measured at 450 nm as described above for FcγRI binding assay.

“CA Exendin (lysine)-PEG-(N-terminus) Fc - Experimental group (Fc fusion)” registered a potency relative to the isomer linked at another position of Fc in assay [1] of 6 times.
In assay [1], “CA Exendin (lysine)-PEG-(lysine) Fc (Fc fusion)” displayed a % vs. Experimental group of 16.1% and an EC50 (ng/ml), in vitro activity of 590 ng/mL.

B1: Pegfilgrastim (Neulasta) (ligand, UniProt P09919-2 31-204, looked up)
chain: TPLGPASSLPQSFLLKCLEQVRKIQGDGAALQEKLCATYKLCHPEELVLLGHSLGIPWAPLSSCPSQALQLAGCLSQLHSGLFLYQGLLQALEGISPELGPTLDTLQLDVADFATTIWQQMEELGMAPALQPTQGAMPAFASAFQRRAGGVLVASHLQSFLEVSYRVLRHLAQP
modifications: 20 kDa polyethylene glycol on the N-terminal methionine residue
notes: Commercial product
Take B1: the Kd in assay [2] was 2.9 nM.

B2: GST fusion protein of FcγRIIB (receptor, UniProt P31994 43-217, looked up)
chain: TPAAPPKAVLKLEPQWINVLQEDSVTLTCRGTHSPESDSIQWFHNGNLIPTHTQPSYRFKANNNDSGEYTCQTGQTSLSDPVHLTVLSEWLVLQTPHLEFQEGETIVLRCHSWKDKPLVKVTFFQNGKSKKFSRSDPNFSIPQANHSHSGDYHCTGNIGYTLYSSKPVTITVQAP
notes: not shown: GST
Turning to B2, the binding result in assay [3] is reported as “no binding”.

Source of the values: US20210008166A1 (SPECTRUM PHARMACEUTICALS, published 2021).
